Measurements published in US20190248900A1.

Columns and labels:
ITGA6-Fc [1] = molecular target: T1, ITGA6-Fc; assay: ELISA, 1 ug/ml
T1 sequence (P23229 whole entry, species assumed, looked up): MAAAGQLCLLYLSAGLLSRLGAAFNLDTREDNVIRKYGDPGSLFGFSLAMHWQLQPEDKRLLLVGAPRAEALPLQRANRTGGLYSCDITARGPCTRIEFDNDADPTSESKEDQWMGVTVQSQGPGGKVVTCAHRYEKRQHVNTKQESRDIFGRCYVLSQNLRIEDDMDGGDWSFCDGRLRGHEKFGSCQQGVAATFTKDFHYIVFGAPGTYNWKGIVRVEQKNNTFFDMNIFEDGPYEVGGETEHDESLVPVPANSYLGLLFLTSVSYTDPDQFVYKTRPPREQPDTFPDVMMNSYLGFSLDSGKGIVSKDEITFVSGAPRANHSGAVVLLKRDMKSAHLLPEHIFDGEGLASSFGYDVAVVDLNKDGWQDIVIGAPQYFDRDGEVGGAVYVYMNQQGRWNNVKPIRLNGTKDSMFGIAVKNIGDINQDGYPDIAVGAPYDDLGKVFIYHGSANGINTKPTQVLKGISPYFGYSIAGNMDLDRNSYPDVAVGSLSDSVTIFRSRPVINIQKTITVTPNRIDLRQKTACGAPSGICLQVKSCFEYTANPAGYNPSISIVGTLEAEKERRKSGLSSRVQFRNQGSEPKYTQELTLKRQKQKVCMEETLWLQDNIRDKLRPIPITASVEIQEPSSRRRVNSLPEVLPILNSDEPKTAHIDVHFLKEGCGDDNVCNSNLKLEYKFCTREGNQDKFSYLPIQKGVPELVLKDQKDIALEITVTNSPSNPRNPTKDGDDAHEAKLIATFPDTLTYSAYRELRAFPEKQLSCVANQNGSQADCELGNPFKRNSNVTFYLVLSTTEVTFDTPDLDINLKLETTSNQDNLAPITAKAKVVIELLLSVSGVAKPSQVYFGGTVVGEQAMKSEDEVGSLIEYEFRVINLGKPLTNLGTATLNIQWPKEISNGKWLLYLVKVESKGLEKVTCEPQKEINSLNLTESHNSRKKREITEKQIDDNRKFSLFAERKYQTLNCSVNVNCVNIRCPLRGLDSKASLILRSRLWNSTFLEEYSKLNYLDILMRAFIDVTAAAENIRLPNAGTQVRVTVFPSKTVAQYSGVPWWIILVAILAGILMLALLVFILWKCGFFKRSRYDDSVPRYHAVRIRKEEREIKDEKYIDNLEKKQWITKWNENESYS

ITGA6-Fc [2] = molecular target: T1, ITGA6-Fc; assay: ELISA (control row)
[3] = molecular target: human PD-1 (NM_005018.2) over-expressed on cells (human) (UniProt Q15116); assay: flow cytometry, 18 nM, panel 49A2
Sequence of human PD-1 (NM_005018.2) over-expressed on cells (human) (Q15116 25-288): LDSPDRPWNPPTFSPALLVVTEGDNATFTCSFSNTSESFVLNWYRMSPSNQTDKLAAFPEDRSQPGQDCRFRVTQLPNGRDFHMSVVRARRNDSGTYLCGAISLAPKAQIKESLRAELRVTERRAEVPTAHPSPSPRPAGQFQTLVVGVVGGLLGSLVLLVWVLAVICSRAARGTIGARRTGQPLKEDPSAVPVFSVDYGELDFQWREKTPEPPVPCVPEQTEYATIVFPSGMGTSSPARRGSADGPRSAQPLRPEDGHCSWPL

[4] = molecular target: human PD-1 (NM_005018.2) over-expressed on cells (human) (UniProt Q15116); assay: flow cytometry, 18 nM, panel 45D6

Sequence of Pembrolizumab (antibody) (VH): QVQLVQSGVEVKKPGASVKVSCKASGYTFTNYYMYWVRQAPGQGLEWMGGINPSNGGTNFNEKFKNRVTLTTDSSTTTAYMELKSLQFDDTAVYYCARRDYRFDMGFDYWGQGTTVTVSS
Sequence of Pembrolizumab (antibody) (VL): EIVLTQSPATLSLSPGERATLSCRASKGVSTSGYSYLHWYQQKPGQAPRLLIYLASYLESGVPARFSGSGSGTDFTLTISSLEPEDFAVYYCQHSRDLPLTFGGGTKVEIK

| OD490 (ITGA6-Fc [1]) | OD490 (ITGA6-Fc [2]) | Geometric Mean [3] | Geometric Mean [4] | Substance |
| --- | --- | --- | --- | --- |
| 0.3 | 0.3 | – | – | Nivolumab (antibody) |
| 0.1 | 0.1 | – | – | Pembrolizumab (antibody) |
| – | – | 50 | 50 | IgG (antibody) |
